PMC2679190

target: MyBPC1 (Myosin Binding Protein C1) (UniProt Q00872)
UniProt Q00872, sequence (Q00872 whole entry): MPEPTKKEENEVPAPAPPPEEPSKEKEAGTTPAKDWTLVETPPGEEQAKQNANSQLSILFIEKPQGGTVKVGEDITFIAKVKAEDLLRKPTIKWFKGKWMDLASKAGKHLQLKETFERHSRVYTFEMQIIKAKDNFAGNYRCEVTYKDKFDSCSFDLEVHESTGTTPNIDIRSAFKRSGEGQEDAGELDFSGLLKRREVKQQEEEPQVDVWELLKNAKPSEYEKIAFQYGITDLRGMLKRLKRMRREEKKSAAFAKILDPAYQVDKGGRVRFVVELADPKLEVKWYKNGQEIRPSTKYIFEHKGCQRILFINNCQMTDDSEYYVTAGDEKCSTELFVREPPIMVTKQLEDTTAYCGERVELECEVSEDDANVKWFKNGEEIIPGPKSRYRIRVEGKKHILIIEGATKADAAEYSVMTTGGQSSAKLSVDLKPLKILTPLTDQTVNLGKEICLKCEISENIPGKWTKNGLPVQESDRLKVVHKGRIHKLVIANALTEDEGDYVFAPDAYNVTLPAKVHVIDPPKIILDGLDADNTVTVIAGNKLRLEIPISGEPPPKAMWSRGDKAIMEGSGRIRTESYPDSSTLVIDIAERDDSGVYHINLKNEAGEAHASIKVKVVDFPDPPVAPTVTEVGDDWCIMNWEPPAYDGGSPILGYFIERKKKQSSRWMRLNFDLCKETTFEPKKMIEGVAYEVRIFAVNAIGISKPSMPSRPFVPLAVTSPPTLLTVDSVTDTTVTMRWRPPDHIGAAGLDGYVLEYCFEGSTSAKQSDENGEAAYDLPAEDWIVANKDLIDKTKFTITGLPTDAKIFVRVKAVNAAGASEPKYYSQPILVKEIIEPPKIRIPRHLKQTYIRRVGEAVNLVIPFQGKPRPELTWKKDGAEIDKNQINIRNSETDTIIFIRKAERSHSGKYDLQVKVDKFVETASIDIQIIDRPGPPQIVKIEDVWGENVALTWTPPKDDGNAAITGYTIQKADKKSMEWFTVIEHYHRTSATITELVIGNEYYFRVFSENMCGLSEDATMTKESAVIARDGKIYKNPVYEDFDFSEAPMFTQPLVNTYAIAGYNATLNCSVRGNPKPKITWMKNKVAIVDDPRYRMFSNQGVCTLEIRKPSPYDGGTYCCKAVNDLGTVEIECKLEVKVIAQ

| rescue of HA-MyBPC1 from proteasome degradation in co-transfected HEK293T cells (MyBPC1 level by western blot, rescue by wild-type USP25m = 1) [fold] | Substance |
| --- | --- |
| 3 | USP25m ΔUBA (Δ19-58 aa, inclusive) (enzyme) |
| < 8 | USP25m ΔUBA-UIM1-UIM2 (Δ19-141 aa, inclusive) (enzyme) |
| 2 | USP25m ΔUIM1 (Δ96-115 aa, inclusive) (enzyme) |
